# Reference: the DeepSol protein solubility set
# Assay: soluble on expression in E. coli; label from the status in PepcDB or PDB records
row,Sequence,soluble on expression in E. coli
1,GPGSMSKGAVVLVLDITLPRAAALVEACNLCDRILTDKMIYAPSDEVSVILAGTEKSRSALYEQSVQARYNHITVAAELGPATSLTLAPIAATRAGVAVLPEGETVRPSIAEAYDFIDALQVAVAVLQARTSQKKYNRCIYFLTDARHEVRHKEDLLSLIDILQRDQVALVVIGFDFQALPAPADSQGEFNESTTVVPSAWAALDRKAQNERILAALCTELGPPSTLVSPAEALASLSLLRCRRIRQQPVLKVALRMGDVRLATQLFTLTQEERLPSLRRSTQDGVDVAQTIEYVVLGGVEERPCALAKEERVEAFFLGVDRISCSEADREAMRVKGPRALEAIGFVGEAEVEPYLLMGGTRALLPLAGDHAGQRGFNALVDAMASSRKAMLVRLVRTADAAPSLCVCFARTAGSSAAQRHLVLAPLPFAEDVRALRFSEYPELQFSAAEEQLMDELIDGLSVDDSVLAPHDTFNPVLQQYYATLRAKLSAMNVSAEKGNTKATSPEAAVPQLLPTLRGTSTDFFAEGSEVYEVVSAHRSALVSCATAFPYEDEADALLSGSRDAGRKGKPWYQDVAMTPSLIGPQAGSPPPAAQGSDGAPSTIAPAIAGGARCGGEADEASAGSHTASDANSISTVPHDTISGGVSFAITSVDPVGSFSMIVHHPAVTEAQLNKAKDDLSDVIWELLRSSIKDAIYRKCMACIMALRQFCVTQDDAAYYNDFLLKLEVVARQCSRDADFWVPYVVERKDGANVWPITAQECKSAALPDDTAAKAFLQKDRFDPAIAFDDTADDDDWLAEIQ,not soluble
2,MRIFLLFLFFVLFTFGVEGYVIEEINGSTGLRIHKEIKRKVYITEDALITETEKEFMVQKIENGLPRIYRVIKSSKSYMDFSKMTPLFLVSLPFLDCKQRVCVVNRGAFRPTNEYKKIRGFKARKVVVESHALGKKTTLIQWYTKEWKELVEANRLEDKFYVNFIRAIMKEKNLSEANIPLKEIQNFLKEINEKFGGVVRTQQQMPLFNTYSEVISVKKTEIPDYIYKLPEGYTKIK,not soluble
3,MYTITDIAPTDAEFIALIAALDAWQETLYPAESNHLLDLSQLPPQTVIALAIRSPQGEAVGCGAIVLSEEGFGEMKRVYIDPQHRGQQLGEKLLAALEAKARQRDCHTLRLETGIHQHAAIALYTRNGYQTRCAFAPYQPDPLSVFMEKP,not soluble
4,MNYIRKLYKQDYRGFESLPHRRENVIEKYSVKSQRPLLKKYLVEDFGGMCIYCGWNCKRYDAASFHIEHIKSQIDNESLIDDYSNLALSCPICNTTKNKKALPSDLDPLGEDYKNLFYRNNRGAIVTNNDIEDRKKALSQQYIKILGLSKELYKLDYVQTSLNIIKRRLRQSDKINLELINSITEILDFIDDNYTRQSNLTLLEHHHHHH,not soluble
5,MGGMDTGVTSPRVLVVDDDSDVLASLERGLRLSGFEVATAVDGAEALRSATENRPDAIVLDINMPVLDGVSVVTALRAMDNDVPVCVLSARSSVDDRVAGLEAGADDYLVKPFVLAELVARVKALLRRRGSTATSSSETITVGPLEVDIPGRRARVNGVDVDLTKREFDLLAVLAEHKTAVLSRAQLLELVWGYDFAADTNVVDVFIGYLRRKLEAGGGPRLLHTVRGVGFVLRMQ,soluble
6,MGSDKIHHHHHHVFDKNLRNSFFAEPYSSEPLAIRIREVLNGKVGFYSVGLYPASLAYNCALQNEGFNILLAPRDGRELFGAFSDIDLSEMDNGIKNKIESMAIPNEDKSGRYNTLKDLLINCELVVLSSNSKHIITDLDLAFKLRKELNRDNVLIACLVGSFCHDHNLNESFVLCEKLNKLAFFSGFHRHGALRNPLDSFTANFCHPDSMNAILGAKLLNKISPNIQVSAGIHNVEGQYIKAAKNISSIFAGFGHTFHKNNPGLLPTLLTLLLDQCLDQAAYVSMSRTDREDLYSKQPFPITELGYSVQRIEASYVKDGDFVQVRDHTFTQLKAMVADVRGSMMLPVSGNPTRNFQAGQVLAERMIEYKRCPKGVDEFIEWCERSGLKRGALEGINSLNYWPNILRKYSIPLNNSSMINLLYMCILGPVEIKNCIYNVMSSSRELANYCQESVKSSQNKKISEALDNFHLKTSVDFVTKSLIDDDKLFFENNEIGFDNPLGAQNMPIYNKVIDYMETYLLESNL,not soluble
7,GPGSMSLLKGKEVEVTQDDQRRICIFARMHRRRKELTATITRLKEQAAKLSDASDELMIADGAMYLFGETFVAIDNDEAGEWLAKEQAQLQRDQETTEEELKLVESQLSDLKAKLYASLGSQVYLEDE,soluble
8,MAEKTYSGFVAIVGKPNVGKSTLLNNLLGVKVAPISPRPQTTRKRLRGILTEGRRQIVFVDTPGLHKPMDALGEFMDQEVYEALADVNAVVWVVDLRHPPTPEDELVARALKPLVGKVPILLVGNKLDAAKYPEEAMKAYHELLPEAEPRMLSALDERQVAELKADLLALMPEGPFFYPEDYAKSDQTFGEWVAEILREEAMKRLWHEVPYAVATKVEEVAERENGVLYIKAILYVERPSQKAIVIGEGGRKIKEIGQATRKQLEALLGKKVYLDLEVKVYPDWRKDPEALRELGYRSSVG,soluble
9,MGSDKIHHHHHHMKDSDILMLAEEGESTSEASARKKALLLGRQLGLASEQEYRPANASIAERAQHRARKLSSQYQANVETIFALALSYTPSDVTGVDLDPDWSHQFFLMAEQIHNRRMQDLWARILSSEIVNPGNFSLRTLALLKQLTHREAQILEKALGMAAKVNSEQRLKLISGYRLSGGIGQYFRKTTSVNLGLSQFGLPYSSILTLVDAGILHSSEFETGLLNNKTPIQFALQGIQMKLTPKSGNLLFSYYRFTPIGDELAQLVQPKPDQEYLKALQLLFAKDFKIE,not soluble
10,MMKTMRIAAIPGDGIGKEVLPEGIRVLQAAAERWGFALSFEQMEWASCEYYSHHGKMMPDDWHEQLSRFDAIYFGAVGWPDTVPDHISLWGSLLKFRREFDQYVNLRPVRLFPGVPCPLAGKQPGDIDFYVVRENTEGEYSSLGGRVNEGTEHEVVIQESVFTRRGVDRILRYAFELAQSRPRKTLTSATKSNGLAISMPYWDERVEAMAENYPEIRWDKQHIDILCARFVMQPERFDVVVASNLFGDILSDLGPACTGTIGIAPSANLNPERTFPSLFEPVHGSAPDIYGKNIANPIATIWAGAMMLDFLGNGDERFQQAHNGILAAIEEVIAHGPKTPDMKGNATTPQVADAICKIILR,soluble
11,MCYIEITKDNIEDNHICCALSTKQYEHAVNEKKRWLKARMDEGLVFYRLHERAKVFIEYLPANEAWVPINAPNFMYINCLWVSGRYKNNGHAKRLLDKCIADAKACGMDGIIHIAGKKKLPYLSDKHFFEHMGFTLQDEAAPYFQLMALTWNGLADSPAFKSQVKSDSINEKGITIYYTAQCPFAVGMINDLRELTEKKGVQFQSIQLSSKEEAQKSPAIWTTFSVFFDGRFVTHEIMSINKFEKLLNTLA,not soluble
12,ADPDTGVDTGAPYWTRPERMDKKLLAVPAANTVRFRCPAAGNPTPSISWLKNGREFRGEHRIGGIKLRHQQWSLVMESVVPSDRGNYTCVVENKFGSIRQTYTLDVLERSPHRPILQAGLPANQTAVLGSDVEFHCKVYSDAQPHIQWLKHVEVNGSKVGPDGTPYVTVLKSWISESVEADVRLRLANVSERDGGEYLCRATNFIGVAEKAFWLSVHGPRAAEEELVEADEAGSVHHHHHH,soluble
13,MKKISRKEYVSMYGPTTGDKVRLGDTDLIAEVEHDYTIYGEELKFGGGKTLREGMSQSNNPSKEELDLIITNALIVDYTGIYKADIGIKDGKIAGIGKGGNKDMQDGVKNNLSVGPATEALAGEGLIVTAGGIDTHIHFISPQQIPTAFASGVTTMIGGGTGPADGTNATTITPGRRNLKWMLRAAEEYSMNLGFLAKGNASNDASLADQIEAGAIGFKIHEDWGTTPSAINHALDVADKYDVQVAIHTDTLNEAGCVEDTMAAIAGRTMHTFHTEGAGGGHAPDIIKVAGEHNILPASTNPTIPFTVNTEAEHMDMLMVCHHLDKSIKEDVQFADSRIRPQTIAAEDTLHDMGAFSITSSDSQAMGRVGEVITRTWQTADKNKKEFGRLKEEKGDNDNFRIKRYLSKYTINPAIAHGISEYVGSVEVGKVADLVLWSPAFFGVKPNMIIKGGFIALSQMGDANASIPTPQPVYYREMFAHHGKAKYDANITFVSQAAYDKGIKEELGLERQVLPVKNCRNVTKKDMQFNNTTAHIEVNPETYHVFVDGKEVTSKPANKVSLAQLFSIF,soluble
14,MAHHHHHHMGIGYSQPLTVDTAGPPSSFSCARTVAHVAALTIQRSTQFLGGSTPPPSQSHTHAHHRKKHSHVRSEIACWASATLPSHSNLQRLRDPTTAVNRHSKRCKGEMVVRRMPSDGAGSHATVSENRAPSKRKLRGGFLFASSKWREHLTCNNQNGDTEDHWGLGEGEVRFHSWERILALSVCPLFLLPDGRDSGVTALCGHTEGHEGKERTAVGIMLRTVVKMGDESELTKGGSRGN,soluble
15,AHHHHHHGSSNIVKGIVKWVEGEQFIGGIEGENCSVILGEGGISPMKLLLLSVAGCTAYDVVMILRKMREPIRGLRVEIEGVRREEHPRVYKEVTIHYKIYGKVDEKKARRAIELSQEKYCSASAHLKLGGTIVRYTLEIFDDEPPSHAEG,soluble
16,MAHHHHHHMGIVRSRLHKRKITGGKTKIHRKRMKAELGRLPANTRLGARRVSPVRARGGNFKIRALRLDTGNFAWASEAIAHRVRLLDVVYNATSNELVRTKTLVKNCIVAVDAAPFKRWYAKHYGIDLDADKKSTKAAVAAEKKGRKSAHAAADKYDVNKASPKLQREWTRRRRNHRVEKAIADQLREGRVLARITSRPGQSGRADGILLEGAELQFYLKRLEKKKK,soluble
17,MPRSFLVKKHFNASKKPNYSELDTHTVIISPYLYESYSMPVIPQPEILSSGAYSPITVWTTAAPFHAQLPNGLSPLSGYSSSLGRVSPPPPSDTSSKDHSGSESPISDEEERLQSKLSDPHAIEAEKFQCNLCNKTYSTFSGLAKHKQLHCDAQSRKSFSCKYCDKEYVSLGALKMHIRTHTLPCVCKICGKAFSRPWLLQGHIRTHTGEKPFSCPHCNRAFADRSNLRAHLQTHSDVKKYQCKNCSKTFSRMSLLHKHEESGCCVAH,not soluble
18,MIRLAPLITADVDTTTLPGGKASDAAQDFLTLLSEALAGETTTDKAAPQLLVATDKPTTKGEPLVSDILADAQQADLLIPVDETLPVINDEQSTSTPLTTAQTMTLAAVADKNTTKDEKADDLNEDVTASLSALFAMLPGFDNTPKVTDAPSTVLPAEKPTLFTKLTSAQLTTAQPDDAPGTPAQPLTPLVAEAQSKAEVISTPSPVTADASPLITPHQTQPLPTVAAPVLSAPLGSHEWQQSLSQHISLFTRQGQQSAELRLHPQDLGEVQISLKVDDNQAQIQMISPHQHVRAALEAALPVLRTQLAESGIQLGQSNISGESFSGQQQAASQQQQSQRTANHEPLAGEDDDTLPVPVSLQGRVTGNSGVDIFA,not soluble
19,MLWTDCLTRLRQELSDNVFAMWIRPLVAEETTDSLRLYAPNPYWTRYIQEHHLELISILVEQLSEGRIRQVEILVDSRPGAILSPAEQPATTTAALSSTPVVPQRVKKEVVEPAATQSNKILNSKKRLLNPLFTFSLFVEGRSNQMAAETCRKVLTQLGASQHNPLFLYGPTGLGKTHLMQAVGNALLQAKPNARVMYMTAESFVQDFVSSLQKGKVEEFKKNCRSLDLLLVDDIHLLAGKEASLVEFFYTFNALLDESKQIILTSDRYPKELTELDPRLVSRFSWGLSVGVEPPDIETRIEILLKKAENSGVDLPRNCALFIAQQVVANVRELEGALNKVVAIARFKGSQIDLDVVRESLKDVLAIRARTISVENIQRVVSEYFRIPLKELIGPKRTRIYARPRQLAMGLARELTGDSFPEIGMAFGGRDHSTVMHACEKVQSLKQEDPIFNEDYKNLLRLLQSLEHHHHHH,not soluble
